Experimental data as given in the RNAGym collection of RNA variant scans (doi:10.1073/pnas.2313332121).

B1: TPR t1 (parent)
chain: GACCAAUCUGCCCUCAGAGCUCGAGAACAUCUUCGGAUGCAGAGGAGGCAGGCUUCGGUGGCGCGAUAGCGCCAACGUCCUCAACCUCCAAUGCAUCCCACCACAUGAUGAUGCCUGAAGAGCCUUGGUUUUUUG

Variants of: B1
Test: polymerase ribozyme fitness, log enrichment relative to wild type (log ratio); higher = more active; in vitro selection for triplet polymerase activity
How it was run: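 Mutant libraries were PCR-built and transcribed for each subunit of a heterodimeric triplet polymerase ribozyme and selected for one round in triplicate at −7 °C, frozen, before gel excision of extended constructs and streptavidin-bead capture. Input and output libraries were Illumina-sequenced, keeping genotypes with ≥10 input reads and ≥1 read per output. Fitness is a logarithmic ratio of genotype to wild-type enrichment, in base 2, using inverse-variance-weighted replicate averages.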

| Variant | polymerase ribozyme fitness (log ratio) |
| --- | --- |
| U55C C56U U125A | -0.641 |
| U55C C62G | -1.97 |
| U55C C70A C97U U116A | -4.83 |
| U55C C82A | 0.163 |
| U55C C85A | -2.73 |
| U55C C89U C115U | -3.71 |
| U55C G58A | 0.121 |
| U55C G58A U92C | -0.821 |
| U55C G61A | -0.329 |
| U55C G61A U125A | -0.857 |
| U55C G69C C76U C89A A121U U125G | -4.56 |
| U55C G120U C123G U131A | -0.058 |
| U55C U96A U106A | -0.506 |
| U55C U125A | -1.11 |
| U55G A95U A111C A121U G127C | 0.185 |
| U55G C62A A74U C102A | -5.52 |
| U55G C62U C102A | -1.77 |
| U55G C73U G110A | -0.834 |
| U55G C79A C82U | -1.09 |
| U55G C85A | -1.66 |
| U55G C102A G110A U130A | -6.51 |
| U55G G63U A108G | -2.44 |
| U55G G69A U112C G120C | -2.49 |
| U55G G77C A100U G120C U131A | 0.465 |

| Variant | polymerase ribozyme fitness (log ratio) |
| --- | --- |
| U55G U96A | -1.38 |
| U55G U116G | -2.12 |
| C56A | -0.243 |
| C56A A68G | -2.75 |
| C56A A68G G120C | -4.19 |
| C56A A83C | -0.237 |
| C56A A111U U129C | -4.47 |
| C56A A119G | 0.651 |
| C56A A121G | 1.77 |
| C56A A121U | 1.42 |
| C56A C62U C124U | 1.48 |
| C56A C72U | -0.391 |
| C56A C72U C104A | -1.61 |
| C56A C72U U109G | -5.76 |
| C56A C73G | -2.34 |
| C56A C73U A84U G120U | -1.05 |
| C56A C73U C124A | 1.29 |
| C56A C79A A95C C101U U129A | -4.76 |
| C56A C80U G120C C123G | -0.961 |
| C56A C82A G128A | -2.53 |
| C56A C86A | -0.76 |
| C56A C86G C102A | -3.16 |
| C56A C88U G120U | -0.86 |
| C56A C94U | -0.146 |

| Variant | polymerase ribozyme fitness (log ratio) |
| --- | --- |
| C56A C97A | -3.81 |
| C56A C99U C102U | -5.77 |
| C56A C101A | -0.979 |
| C56A C115A U126C | -1.19 |
| C56A C123G | 1.24 |
| C56A C123U C124U | 1.2 |
| C56A C124G | 1.08 |
| C56A C124U | 1.18 |
| C56A G60A | -0.181 |
| C56A G60A U116G G135A | -3.36 |
| C56A G61A G110U | -4.01 |
| C56A G63C | -2.33 |
| C56A G69U A119G | 0.438 |
| C56A G71A U78G G128C U129A | -4.83 |
| C56A G71U U78G A105G A119U G122A | -5.65 |
| C56A G107C | -5.28 |
| C56A G122A | -0.936 |
| C56A G127U U129A U130C | -1.7 |
| C56A U78A | 0.796 |
| C56A U78C | -0.456 |
| C56A U81A G117A | -1.94 |
| C56G | -0.465 |
| C56G A66U A74C G122A | -6.51 |
| C56G A74U C124U | 0.777 |

| Variant | polymerase ribozyme fitness (log ratio) |
| --- | --- |
| C56G A74U G120U G127A | -1.98 |
| C56G A74U U81A U87A | -4.29 |
| C56G A91U A111C | -2.73 |
| C56G A103U U109G | -6.5 |
| C56G C62U | 0.102 |
| C56G C64G | -7.2 |
| C56G C73A G93C | -4.53 |
| C56G C86U | 0.0765 |
| C56G C89A A105G C114U | -5.42 |
| C56G C89G | -3.34 |
| C56G C94U | -0.644 |
| C56G C98A U112A C123A | -4.9 |
| C56G C98G | -4.96 |
| C56G C98U G110A | -1.9 |
| C56G C101A | -1.08 |
| C56G C114U | -2.55 |
| C56G C115U G135C | -1.67 |
| C56G G57C G58A C104A | -3.33 |
| C56G G57U C101G A111C | -1.77 |
| C56G G58A G77A | 0.427 |
| C56G G61C | -5.99 |
| C56G G61C A95G A111U | -6.34 |
| C56G G63A C101G G122U | -5.14 |
| C56G G63A G135C | -2.89 |

| Variant | polymerase ribozyme fitness (log ratio) |
| --- | --- |
| C56G G63U | -4.87 |
| C56G G69C | -4.54 |
| C56G G69C A83C C104U G135A | -4.55 |
| C56G G69U C82U A95U G127U | -3.08 |
| C56G G69U C124U | 0.715 |
| C56G G71A | -4.31 |
| C56G G77A | -0.468 |
| C56G G77C | -0.126 |
| C56G G93A A95G G113A G120C | -3.38 |
| C56G G93U | -2.19 |
| C56G G107A | -5.95 |
| C56G G110U | -1.13 |
| C56G G117U | -2.83 |
| C56G G122A | -1.46 |
| C56G G127A G128A | -3.93 |
| C56G G127U | -1.1 |
| C56G G135A | -1.39 |
| C56G U78A G117A | -2.04 |
| C56G U81A U125A | -1.81 |
| C56G U87G A100C | -1.94 |
| C56G U92C | -1.23 |
| C56G U92G U96A G122A | -4.6 |
| C56G U96A C123G U130C | 0.506 |
| C56G U96G | -1.51 |

| Variant | polymerase ribozyme fitness (log ratio) |
| --- | --- |
| C56G U106A | -0.921 |
| C56G U109A G113C | -5.42 |
| C56G U109C | -3.23 |
| C56G U112C | 1.26 |
| C56G U116C | -0.924 |
| C56G U116C U130G | -0.701 |
| C56U | 0.0734 |
| C56U A66C U78A | -2.84 |
| C56U A74C A91G | -1.72 |
| C56U A83C U106A A118U C123G | 1.63 |
| C56U A90G | 0.117 |
| C56U A90G C104U G117A A118U U131G | -2.92 |
| C56U A91U | -1.19 |
| C56U A95C A118C C124A U132A | -0.917 |
| C56U A95C G128C | -2.78 |
| C56U A95G C101A | -1.46 |
| C56U A100U U129A | -1.49 |
| C56U A111G | 0.705 |
| C56U A121U | 1.6 |
| C56U C72A A100C C104U A121G | 1.21 |
| C56U C72G | -0.66 |
| C56U C72U C80U A90C | -2.11 |
| C56U C73A | -0.837 |
| C56U C73A C85A A91G | -5.09 |

| Variant | polymerase ribozyme fitness (log ratio) |
| --- | --- |
| C56U C73G G122A U130A | -2.91 |
| C56U C82A G120A G128A | -0.705 |
| C56U C82U | -0.0659 |
| C56U C86G A111U U129G | -5.47 |
| C56U C86G C104U | -0.849 |
| C56U C94U | 0.204 |
| C56U C97U | -0.00643 |
| C56U C98A G120U | -4.12 |
| C56U C98U | -0.841 |
| C56U C115U U126A | -2.48 |
| C56U C124A | 1.7 |
| C56U G57U C70A | -2.65 |
| C56U G57U G69U C114U C115A | -4.53 |
| C56U G61U | -2.88 |
| C56U G61U U112C A118C | -4.53 |
| C56U G63A | -4.43 |
| C56U G63C G110A | -4.56 |
| C56U G69U C79A C101U | -3.71 |
| C56U G69U G120U | -1.89 |
| C56U G77A | 0.388 |
| C56U G77C | -0.361 |
| C56U G93A G110C | -5.11 |
| C56U G93U U116C | -1.7 |
